Data reported in patent US20230212319A1, “NOVEL ANTIGEN BINDING DOMAINS AND SYNTHETIC ANTIGEN RECEPTORS INCORPORATING THE SAME” (University of Southern California, priority 2020, published 2023).

Key:
Assay type in all cases: cell-based
[1] = system: RAJI cells; experiment: JNG assay, co-culture with RAJI cells; details: JNG cells expressing construct, co-culture with Raji
Method in brief: (§1)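 Read-out is NFAT-driven GFP measured by flow cytometry after ~4–18 h co-culture of SAR-expressing JNG cells with target cells (E:T about 1:2). SARs were introduced by lentiviral spinfection and selected with puromycin or blasticidin when possible; scores (+/- to 5+ ≈ 5–50% GFP+) are relative to parental JNG cells.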

[2] = system: L363 cells; experiment: JNG assay, co-culture with L363 cells; details: co-culture with L363
Method in brief: as §1

[3] = system: RAJI-CD19-KO cells; experiment: JNG assay, co-culture with RAJI-CD19-KO cells; details: co-culture with Raji-CD19-KO
Method in brief: as §1

[4] = system: U266 cells; experiment: JNG NFAT-GFP induction on co-culture with U266
[5] = system: Nalm6 cells; experiment: JNG assay, co-culture with Nalm6 cells; details: co-culture with Nalm6
Method in brief: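 Read-out is % GFP-positive cells by flow cytometry after ~4–18 h co-culture (E:T ≈1:2) of target lines with SAR-transduced, puromycin/blasticidin-selected JNG cells. Grades +/-, +, 2+…5+ correspond to approximately 5%, 10%, 20%, 30%, 40%, 50% GFP+ over parental JNG controls.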

| Molecule | NFAT-GFP ASSAY: Raji [1] | NFAT-GFP ASSAY: L363 [2] | NFAT-GFP ASSAY: Raji-CD19-KO [3] | NFAT-GFP ASSAY: U266 [4] | NFAT-GFP ASSAY: Nalm6 [5] |
| --- | --- | --- | --- | --- | --- |
| 22224 (protein) MALPVTALLLPLALLLHAARPDIQMTQSPSSLSASVGDRVTITCKASDHINNWLAWYQQKPGQAPKLLIYGATTLETGVPSRFSGSGSGTDYTLTISSLQPEDFATYYCQQSWNTPWTFGQGTKLEIKRLEDLKNVFPPEVAVFEPSEAEISHTQKATLVCLATGFYPDHVELSWWVNGKEVHSGVCTDPQPLKEQPALNDSRYCLSSRLRVSATFWQNPRNHFRCQVQFYGLSENDEWTQDRAKPVTQIVSAEAWGRADCGFTSESYQQGVLSATILYEILLGKATLYAVLVSALVLMAMVKRKDSRGRAKRSGSGATNFSLLKQAGDVEENPGPTSATMDWIWRILFLVGAATGAHSGPEVQLVESGGGLVQAGGSLRLSCAASGRTFTMGWFRQAPGKEREFVAAISLSPTLAYYADSVKGRFTISRDNAKNTVVLQMNSLKPEDTALYYCAADRKSVMSIRPDYWGQGTQVTVSSGSALRRLLGLFGFEQVQLQQPGAELVKPGASVKMSCKASGYAFSSYWINWMKQKPGQGLEWIGQIYPGDGDTNYNGKFKGRATLTADTSSSTAYMQLSSLTSEDSAVYFCARSITTVVGCAMDYWGQGTSVTVSSTRIQNPDPAVYQLRDSKSSDKSVCLFTDFDSQTNVSQSKDSDVYITDKCVLDMRSMDFKSNSAVAWSNKSDFACANAFNNSIIPEDTFFPSPESSCDVKLVEKSFETDTNLNFQNLSVIGFRILLLKVAGFNLLMTLRLWSSRAKRSGSGVKQTLNFDLLKLAGDVESNPGPSRGHMTEYKPTVRLATRDDVPRAVRTLAAAFADYPATRHTVDPDRHIERVTELQELFLTRVGLDIGKVWVADDGAAVAVWTTPESVEAGAVFAEIGPRMAELSGSRLAAQQQMEGLLAPHRPKEPAWFLATVGVSPDHQGKGLGSAVVLPGVEAAERAGVPAFLETSAPRNLPFYERLGFTVTADVEVPEGPRTWCMTRKPGA | + (refer to approximately 5%, 10%, 20%, 30%, 40% and 50% GFP positive cells) | 2+ (refer to approximately 5%, 10%, 20%, 30%, 40% and 50% GFP positive cells) | 2+ (refer to approximately 5%, 10%, 20%, 30%, 40% and 50% GFP positive cells) | 4+ (refer to approximately 5%, 10%, 20%, 30%, 40% and 50% GFP positive cells) |  |
| 22150 (protein) MALPVTALLLPLALLLHAARPACEVQLLESGGGLIQPGGSLRLSCAASGFTFSSHAMTWVRQAPGKGLEWVSAISGSGDYTHYADSVKGRFTISRDNSKNTVYLQMNSLRAEDSAVYYCAKDEDGGSLLGHRGQGTLVTVSSGTGGGGSGGGGSGGGGSEFDVVMTQSPSSLSASVGDRVTITCMASEDIYIRLAWYQQKPGNAPKLLIYAATSLETGVPSRFSGSGSGTDFTLTISSLQPEDFATYYCQQYWSSPWTFGGGTKVEIKLEADVSPKPTIFLPSIAETKLQKAGTYLCLLEKFFPDVIKIHWQEKKSNTILGSQEGNTMKTNDTYMKFSWLTVPEKSLDKEHRCIVRHENNKNGVDQEIIFPPIKTDVITMDPKDNCSKDANDTLLLQLTNTSAYYMYLLLLLKSVVYFAIITCCLLRRTAFCCNGEKSRAKRSGSGATNFSLLKQAGDVEENPGPTSMDWIWRILFLVGAATGAHSGPQVQLQESGGGLAQAGGSLRLSCAASGRTFSMGWFRQAPGKEREFVAAITYSGGSPYYASSVRGRFTISRDNAKNTVYLQMNSLKPEDTAVYYCAANPTYGSDWNAENWGQGTQVTVSSGSGGGGSGGGGSGGGGSFEQVQLQESGPGLVKPSQTLSLTCTVSGYSITSDYTWNWIRQPPGNGLEWIGYITYSGSTSYNPSLKSRVLISVDTSKNQVSLKLSSVTAADTAVYYCARLGRRYTMDYWGQGTTVTVSSTRPHTKPSVFVMKNGTNVACLVKEFYPKDIRINLVSSKKITEFDPAIVISPSGKYNAVKLGKYEDSNSVTCSVQHDNKTVHSTDFEVKTDSTDHVKPKETENTKQPSKSCHKPKAIVHTEKVNMMSLTVLGLRMLFAKTVAVNFLLTAKLFFLRAKRSGSGVKQTLNFDLLKLAGDVESNPGPSRGHMTEYKPTVRLATRDDVPRAVRTLAAAFADYPATRHTVDPDRHIERVTELQELFLTRVGLDIGKVWVADDGAAVAVWTTPESVEAGAVFAEIGPRMAELSGSRLAAQQQMEGLLAPHRPKEPAWFLATVGVSPDHQGKGLGSAVVLPGVEAAERAGVPAFLETSAPRNLPFYERLGFTVTADVEVPEGPRTWCMTRKPGA | + (refer to approximately 5%, 10%, 20%, 30%, 40% and 50% GFP positive cells) | +/- (refer to approximately 5%, 10%, 20%, 30%, 40% and 50% GFP positive cells) |  | + (refer to approximately 5%, 10%, 20%, 30%, 40% and 50% GFP positive cells) |  |
| 22246 (protein) MALPVTALLLPLALLLHAARPACEVQLLESGGGLIQPGGSLRLSCAASGFTFSSHAMTWVRQAPGKGLEWVSAISGSGDYTHYADSVKGRFTISRDNSKNTVYLQMNSLRAEDSAVYYCAKDEDGGSLLGHRGQGTLVTVSSGTGPQGIFGQPGYINEFDIQMTQSPSSLSASVGDRVTITCKASDHINNWLAWYQQKPGQAPKLLIYGATTLETGVPSRFSGSGSGTDYTLTISSLQPEDFATYYCQQSWNTPWTFGQGTKLEIKRLEDLKNVFPPEVAVFEPSKAEIAHTQKATLVCLATGFYPDHVELSWWVNGKEVHSGVCTDPQPLKEQPALNDSRYCLSSRLRVSATFWQNPRNHFRCQVQFYGLSENDEWTQDRAKPVTQIVSAEAWGRADCGITSASYHQGVLSATILYEILLGKATLYAVLVSALVLMAMVKRKDSRGRAKRSGSGATNFSLLKQAGDVEENPGPTSATMDWIWRILFLVGAATGAHSGPEVQLVESGGGLVQAGGSLRLSCAASGRTFSMGWFRQAPGKEREFVAAITYSGGSPYYADSVKGRFTISRDNAKNTVYLQMNSLKPEDTAVYYCAANPTYGSDWNAENWGQGTQVTVSSGSGGGGSGGGGSGGGGSFEQVQLQQPGAELVKPGASVKMSCKASGYAFSSYWINWMKQKPGQGLEWIGQIYPGDGDTNYNGKFKGRATLTADTSSSTAYMQLSSLTSEDSAVYFCARSITTVVGCAMDYWGQGTSVTVSSTRIQNPDPAVYQLRDSKSSDKSVCLFTDFDSQTNVSQSKDSDVYITDKCVLDMRSMDFKSNSAVAWSNKSDFACANAFNNSIIPEDTFFPSPESSCDVKLVEKSFETDTNLNFQNLSVIGFRILLLKVAGFNLLMTLRLWSSRAKRSGSGVKQTLNFDLLKLAGDVESNPGPSRGHMTEYKPTVRLATRDDVPRAVRTLAAAFADYPATRHTVDPDRHIERVTELQELFLTRVGLDIGKVWVADDGAAVAVWTTPESVEAGAVFAEIGPRMAELSGSRLAAQQQMEGLLAPHRPKEPAWFLATVGVSPDHQGKGLGSAVVLPGVEAAERAGVPAFLETSAPRNLPFYERLGFTVTADVEVPEGPRTWCMTRKPGA |  | + (refer to approximately 5%, 10%, 20%, 30%, 40% and 50% GFP positive cells) |  | 2+ (refer to approximately 5%, 10%, 20%, 30%, 40% and 50% GFP positive cells) | + (refer to approximately 5%, 10%, 20%, 30%, 40% and 50% GFP positive cells) |
| 22160 (protein) MALPVTALLLPLALLLHAARPACEVQLLESGGGLIQPGGSLRLSCAASGFTFSSHAMTWVRQAPGKGLEWVSAISGSGDYTHYADSVKGRFTISRDNSKNTVYLQMNSLRAEDSAVYYCAKDEDGGSLLGHRGQGTLVTVSSGTGGGGSGGGGSGGGGSEFDIQMTQSPSSLSASVGDRVTITCKASQDVGIAVAWYQQKPGKVPKLLIYWASTRHTGVPDRFSGSGSGTDFTLTISSLQPEDVATYYCQQYSSYPYTFGQGTKVEIKRLEADVSPKPTIFLPSIAETKLQKAGTYLCLLEKFFPDVIKIHWQEKKSNTILGSQEGNTMKTNDTYMKFSWLTVPEKSLDKEHRCIVRHENNKNGVDQEIIFPPIKTDVITMDPKDNCSKDANDTLLLQLTNTSAYYMYLLLLLKSVVYFAIITCCLLRRTAFCCNGEKSRAKRSGSGATNFSLLKQAGDVEENPGPTSMDWIWRILFLVGAATGAHSGPQVQLQESGGGLAQAGGSLRLSCAASGRTFSMGWFRQAPGKEREFVAAITYSGGSPYYASSVRGRFTISRDNAKNTVYLQMNSLKPEDTAVYYCAANPTYGSDWNAENWGQGTQVTVSSGSGGGGSGGGGSGGGGSFEQVQLQQPGAELVKPGASVKMSCKASGYAFSSYWINWMKQKPGQGLEWIGQIYPGDGDTNYNGKFKGRATLTADTSSSTAYMQLSSLTSEDSAVYFCARSITTVVGCAMDYWGQGTSVTVSSTRPHTKPSVFVMKNGTNVACLVKEFYPKDIRINLVSSKKITEFDPAIVISPSGKYNAVKLGKYEDSNSVTCSVQHDNKTVHSTDFEVKTDSTDHVKPKETENTKQPSKSCHKPKAIVHTEKVNMMSLTVLGLRMLFAKTVAVNFLLTAKLFFLRAKRSGSGVKQTLNFDLLKLAGDVESNPGPSRGHMTEYKPTVRLATRDDVPRAVRTLAAAFADYPATRHTVDPDRHIERVTELQELFLTRVGLDIGKVWVADDGAAVAVWTTPESVEAGAVFAEIGPRMAELSGSRLAAQQQMEGLLAPHRPKEPAWFLATVGVSPDHQGKGLGSAVVLPGVEAAERAGVPAFLETSAPRNLPFYERLGFTVTADVEVPEGPRTWCMTRKPGA | 2+ (refer to approximately 5%, 10%, 20%, 30%, 40% and 50% GFP positive cells) | + (refer to approximately 5%, 10%, 20%, 30%, 40% and 50% GFP positive cells) |  | 3+ (refer to approximately 5%, 10%, 20%, 30%, 40% and 50% GFP positive cells) | + (refer to approximately 5%, 10%, 20%, 30%, 40% and 50% GFP positive cells) |
